Measured values taken from patent US20210246166A1 (Bayer, published 2021).
Numbered stars: 1 amine (or outer) side, 2 acyl side, 3 side chain; on linkers, the order of the positions; unused ones are H or OH. Bridge positions count the residues as written; N and C are the ends. Square brackets hold non-standard residues; d marks the D form. Ends that are not written are not given here. X13 = (2S)‑2‑amino‑3‑(1-methylcyclopropyl)propanoic acid, CC1(C[C@H](N[*:1])C(=O)[*:2])CC1; Oic = O=C(O)[C@@H]1C[C@@H]2CCCC[C@@H]2N1; tBuAla = CC(C)(C)C[C@H](N)C(=O)O; PEG4 = NCCOCCOCCOCCOCCC(=O)O; Pen = CC(C)(S)[C@H](N)C(=O)O; Tranexamic = tranexamic acid; 4Amb = NCc1ccc(C(=O)O)cc1; NMeC = CN[C@@H](CS)C(=O)O; Nva = CCC[C@H](N)C(=O)O; Ac4c = NC1(C(=O)O)CCC1; PEG2 = NCCOCCOCCC(=O)O; Sar = CNCC(=O)O

T1: recombinant rat MASP1 active protease (amino acids 302-704, C-terminal His Tag) (rat, UniProt Q8CHN8 302-704)
T1 sequence: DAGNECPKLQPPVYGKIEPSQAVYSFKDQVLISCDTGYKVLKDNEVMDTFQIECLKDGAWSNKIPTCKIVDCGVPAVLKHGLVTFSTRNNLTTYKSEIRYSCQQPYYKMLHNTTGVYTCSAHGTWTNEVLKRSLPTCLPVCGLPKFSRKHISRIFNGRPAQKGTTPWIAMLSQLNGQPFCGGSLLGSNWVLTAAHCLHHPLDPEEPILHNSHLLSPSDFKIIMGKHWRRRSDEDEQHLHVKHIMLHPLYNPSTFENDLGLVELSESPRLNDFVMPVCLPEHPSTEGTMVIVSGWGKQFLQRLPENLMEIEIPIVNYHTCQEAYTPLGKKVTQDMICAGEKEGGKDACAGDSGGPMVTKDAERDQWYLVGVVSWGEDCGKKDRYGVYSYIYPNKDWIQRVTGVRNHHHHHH

B1: Example 185: AIC+SRSLP-(Oic)-I-((N-Me)C)+IPD-NH2 (peptide)
peptide: AICSRSLP[Oic]I[NMeC]IPD-NH2
modifications: disulfide 3-11; N-terminus assumed
SMILES: CC[C@H](C)[C@H](NC(=O)[C@H](C)N)C(=O)N[C@H]1CSSC[C@@H](C(=O)N[C@H](C(=O)N2CCC[C@H]2C(=O)N[C@@H](CC(=O)O)C(N)=O)[C@@H](C)CC)N(C)C(=O)[C@H]([C@@H](C)CC)NC(=O)[C@@H]2C[C@@H]3CCCC[C@@H]3N2C(=O)[C@@H]2CCCN2C(=O)[C@H](CC(C)C)NC(=O)[C@H](CO)NC(=O)[C@H](CCCNC(=N)N)NC(=O)[C@H](CO)NC1=O
B2: Example 224: AIC+SRSLP-(Oic)-IC+IPD-NH2 (peptide)
peptide: AICSRSLP[Oic]ICIPD-NH2
modifications: disulfide 3-11; N-terminus assumed
SMILES: CC[C@H](C)[C@H](NC(=O)[C@H](C)N)C(=O)N[C@H]1CSSC[C@@H](C(=O)N[C@H](C(=O)N2CCC[C@H]2C(=O)N[C@@H](CC(=O)O)C(N)=O)[C@@H](C)CC)NC(=O)[C@H]([C@@H](C)CC)NC(=O)[C@@H]2C[C@@H]3CCCC[C@@H]3N2C(=O)[C@@H]2CCCN2C(=O)[C@H](CC(C)C)NC(=O)[C@H](CO)NC(=O)[C@H](CCCNC(=N)N)NC(=O)[C@H](CO)NC1=O
B3: Example 211: FIC+SRS-((tBu)A)-PPI-(Pen)+IPD-NH2 (peptide)
peptide: FICSRS[tBuAla]PPI[Pen]IPD-NH2
modifications: disulfide 3-11; N-terminus assumed
SMILES: CC[C@H](C)[C@H](NC(=O)[C@@H](N)Cc1ccccc1)C(=O)N[C@H]1CSSC(C)(C)[C@@H](C(=O)N[C@H](C(=O)N2CCC[C@H]2C(=O)N[C@@H](CC(=O)O)C(N)=O)[C@@H](C)CC)NC(=O)[C@H]([C@@H](C)CC)NC(=O)[C@@H]2CCCN2C(=O)[C@@H]2CCCN2C(=O)[C@H](CC(C)(C)C)NC(=O)[C@H](CO)NC(=O)[C@H](CCCNC(=N)N)NC(=O)[C@H](CO)NC1=O
B4: Example 170: AIC+SRSLPPI-(Pen)+IPD-NH2 (peptide)
peptide: AICSRSLPPI[Pen]IPD-NH2
modifications: disulfide 3-11; N-terminus assumed
SMILES: CC[C@H](C)[C@H](NC(=O)[C@H](C)N)C(=O)N[C@H]1CSSC(C)(C)[C@@H](C(=O)N[C@H](C(=O)N2CCC[C@H]2C(=O)N[C@@H](CC(=O)O)C(N)=O)[C@@H](C)CC)NC(=O)[C@H]([C@@H](C)CC)NC(=O)[C@@H]2CCCN2C(=O)[C@@H]2CCCN2C(=O)[C@H](CC(C)C)NC(=O)[C@H](CO)NC(=O)[C@H](CCCNC(=N)N)NC(=O)[C@H](CO)NC1=O
B5: Example 174: ((N-Me)G)-IC+SRS-((tBu)A)-PPI-(Pen)+IP-(PEG3(16atoms))-NH2 (peptide)
peptide: [Sar]ICSRS[tBuAla]PPI[Pen]IP[PEG4]-NH2
modifications: disulfide 3-11; N-terminus assumed
SMILES: CC[C@H](C)[C@H](NC(=O)CNC)C(=O)N[C@H]1CSSC(C)(C)[C@@H](C(=O)N[C@H](C(=O)N2CCC[C@H]2C(=O)NCCOCCOCCOCCOCCC(N)=O)[C@@H](C)CC)NC(=O)[C@H]([C@@H](C)CC)NC(=O)[C@@H]2CCCN2C(=O)[C@@H]2CCCN2C(=O)[C@H](CC(C)(C)C)NC(=O)[C@H](CO)NC(=O)[C@H](CCCNC(=N)N)NC(=O)[C@H](CO)NC1=O
B6: Example 197: ((N-Me)G)-IC+SRS-((2S)-2-amino-3-(1-methylcyclopropyl)propanoic acid)-PPI-(Pen)+IP-NH2 (peptide)
peptide: [Sar]ICSRS[X13]PPI[Pen]IP-NH2
modifications: disulfide 3-11; N-terminus assumed
SMILES: CC[C@H](C)[C@H](NC(=O)CNC)C(=O)N[C@H]1CSSC(C)(C)[C@@H](C(=O)N[C@H](C(=O)N2CCC[C@H]2C(N)=O)[C@@H](C)CC)NC(=O)[C@H]([C@@H](C)CC)NC(=O)[C@@H]2CCCN2C(=O)[C@@H]2CCCN2C(=O)[C@H](CC2(C)CC2)NC(=O)[C@H](CO)NC(=O)[C@H](CCCNC(=N)N)NC(=O)[C@H](CO)NC1=O
B7: Example 199: A-(Nva)-C+SRS-((tBu)A)-PPI-(Pen)+IPD-NH2 (peptide)
peptide: A[Nva]CSRS[tBuAla]PPI[Pen]IPD-NH2
modifications: disulfide 3-11; N-terminus assumed
SMILES: CCC[C@H](NC(=O)[C@H](C)N)C(=O)N[C@H]1CSSC(C)(C)[C@@H](C(=O)N[C@H](C(=O)N2CCC[C@H]2C(=O)N[C@@H](CC(=O)O)C(N)=O)[C@@H](C)CC)NC(=O)[C@H]([C@@H](C)CC)NC(=O)[C@@H]2CCCN2C(=O)[C@@H]2CCCN2C(=O)[C@H](CC(C)(C)C)NC(=O)[C@H](CO)NC(=O)[C@H](CCCNC(=N)N)NC(=O)[C@H](CO)NC1=O
B8: Example 208: (ACBA)-IC+SRS-((tBu)A)-PPI-(Pen)+I-NH2 (peptide)
peptide: [Ac4c]ICSRS[tBuAla]PPI[Pen]I-NH2
modifications: disulfide 3-11; N-terminus assumed
SMILES: CC[C@H](C)[C@H](NC(=O)[C@H]1NC(=O)[C@H]([C@@H](C)CC)NC(=O)[C@@H]2CCCN2C(=O)[C@@H]2CCCN2C(=O)[C@H](CC(C)(C)C)NC(=O)[C@H](CO)NC(=O)[C@H](CCCNC(=N)N)NC(=O)[C@H](CO)NC(=O)[C@@H](NC(=O)[C@@H](NC(=O)C2(N)CCC2)[C@@H](C)CC)CSSC1(C)C)C(N)=O
B9: Example 212: GIC+SRS-((tBu)A)-P-(Oic)-I-((N-Me)C)+IPD-NH2 (peptide)
peptide: GICSRS[tBuAla]P[Oic]I[NMeC]IPD-NH2
modifications: disulfide 3-11; N-terminus assumed
SMILES: CC[C@H](C)[C@H](NC(=O)CN)C(=O)N[C@H]1CSSC[C@@H](C(=O)N[C@H](C(=O)N2CCC[C@H]2C(=O)N[C@@H](CC(=O)O)C(N)=O)[C@@H](C)CC)N(C)C(=O)[C@H]([C@@H](C)CC)NC(=O)[C@@H]2C[C@@H]3CCCC[C@@H]3N2C(=O)[C@@H]2CCCN2C(=O)[C@H](CC(C)(C)C)NC(=O)[C@H](CO)NC(=O)[C@H](CCCNC(=N)N)NC(=O)[C@H](CO)NC1=O
B10: Example 187: (4-(Aminomethyl)benzoic acid)-IC+SRS-((tBu)A)-PPI-(Pen)+IPD-NH2 (peptide)
peptide: [4Amb]ICSRS[tBuAla]PPI[Pen]IPD-NH2
modifications: disulfide 3-11; N-terminus assumed
SMILES: CC[C@H](C)[C@H](NC(=O)c1ccc(CN)cc1)C(=O)N[C@H]1CSSC(C)(C)[C@@H](C(=O)N[C@H](C(=O)N2CCC[C@H]2C(=O)N[C@@H](CC(=O)O)C(N)=O)[C@@H](C)CC)NC(=O)[C@H]([C@@H](C)CC)NC(=O)[C@@H]2CCCN2C(=O)[C@@H]2CCCN2C(=O)[C@H](CC(C)(C)C)NC(=O)[C@H](CO)NC(=O)[C@H](CCCNC(=N)N)NC(=O)[C@H](CO)NC1=O

Target: T1, recombinant rat MASP1 active protease …
Assay: cell-based or functional assay

rat MASP1 IC50 [nM]	Binder
57	B1
60.4	B2
75	B3
54	B4
65.6	B5
100	B6
180	B7
61	B8
70	[Sar]ICSRSLP[Oic]I[Pen]I[5‑Azaspiro(2.4)heptane‑1‑carboxylic acid]-OH (disulfide 3-11) [Example 194: ((N-Me)G)-IC+SRSLP-(Oic)-I-(Pen)+I-((5-Azaspiro[2.4]heptane-1-carboxylic acid)-OH]
24.6	B9
42	AICSRS[tBuAla]PPI[Pen]IP[Tranexamic]-NH2 (disulfide 3-11) [Example 171: AIC+SRS-((tBu)A)-PPI-(Pen)+IP-(Tranexamic)-NH2]
77	B10
43	[Sar]ICSRS[tBuAla]PPI[Pen]IP-{PEG2-NH2} (disulfide 3-11) [Example 207: ((N-Me)G)-IC+SRS-((tBu)A)-PPI-(Pen)+IP-(PEG1(10 atoms))-NH2]

Target: recombinant rat MASP2 active protease (amino acids 296-685, C-terminal His Tag) (rat, UniProt Q9JJS8 296-685)
Sequence (Q9JJS8 other isoform, or with tags, fused parts or gaps limits assumed): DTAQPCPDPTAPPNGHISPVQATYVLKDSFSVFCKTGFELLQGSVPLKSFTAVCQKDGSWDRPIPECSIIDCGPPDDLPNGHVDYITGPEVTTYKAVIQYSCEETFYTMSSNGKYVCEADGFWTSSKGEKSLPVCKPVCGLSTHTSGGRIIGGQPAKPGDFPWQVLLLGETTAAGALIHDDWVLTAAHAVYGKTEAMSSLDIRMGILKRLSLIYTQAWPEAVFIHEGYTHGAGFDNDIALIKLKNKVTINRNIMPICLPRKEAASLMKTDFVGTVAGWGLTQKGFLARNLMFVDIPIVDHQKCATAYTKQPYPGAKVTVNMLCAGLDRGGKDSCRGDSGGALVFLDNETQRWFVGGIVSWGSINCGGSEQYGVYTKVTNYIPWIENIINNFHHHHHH
Assay: cell-based or functional assay

rat MASP2 IC50 [nM]	Binder
10.9	B1
42.4	B2
23	B3
9.82	B4
35.1	B5
15	B6
49	B7
8.6	B8
42	[Sar]ICSRSLP[Oic]I[Pen]I[5‑Azaspiro(2.4)heptane‑1‑carboxylic acid]-OH (disulfide 3-11) [Example 194: ((N-Me)G)-IC+SRSLP-(Oic)-I-(Pen)+I-((5-Azaspiro[2.4]heptane-1-carboxylic acid)-OH]
34.5	B9
21	AICSRS[tBuAla]PPI[Pen]IP[Tranexamic]-NH2 (disulfide 3-11) [Example 171: AIC+SRS-((tBu)A)-PPI-(Pen)+IP-(Tranexamic)-NH2]
3.7	B10
33.6	[Sar]ICSRS[tBuAla]PPI[Pen]IP-{PEG2-NH2} (disulfide 3-11) [Example 207: ((N-Me)G)-IC+SRS-((tBu)A)-PPI-(Pen)+IP-(PEG1(10 atoms))-NH2]
